Results as given in US20250026813A1 (published 2025).

Biological target: SARS-CoV-2 spike protein receptor binding domain (isolated RBD) (SARS-CoV-2, UniProt P0DTC2 319-541)

Row | Binder | Kd [nM] | koff [s⁻¹] | kon [M⁻¹ s⁻¹]
1 | IMPI-006 (antibody, V domains shown) VH: QLQLQESGPGLVKPSETLSLTCTVSGGSISNSNYYWGWIRQPPGKGLEWIGSIYYSGRTYYNPSLKSRVTISVDTSKNQFSLKLSSVTAADTAVYYCARMGLLWFGEFYGMDVWGQGTTVTVSS VL: DIQMTQSPSSLSASVGDRVTITCRASQGISSWLAWYQQKPEKAPKSLIYDASSLQRGVPSRFSGSGSGTDFTLTISSLQPEDFASYYCQQYNSYPLTFGGGTRVEIK | 0.88 | 8.19 | 9.3e+09
2 | IMPI-055 (antibody, V domains shown) VH: QVQLVQSGAEVKKPGASVKVSCKASGYTFTSYDINWVRQATGQGLEWMGWMNPNSGNTGYAQKFQGRVTMTRDTSINTAYMELSSLRSEDTAVYFCARGGRYCSDVTCYSGEPFDYWGQGTLVTVSS VL: EIMLTQSPDFQSVTPKEKVTITCRASQSIGSSLHWYQQKPDQSPKLLIKFASQSISGVPSRFSGSGSGTDFTLTINSLEAEDAAAYYCHQSSSLPHTFGPGTKVEIK | 0.959 | 0.00264 | 2.75e+06
3 | IMPI-029 (antibody, V domains shown) VH: EVQLVESGGGLIQPGGSLRLSCAASGVTVSSNYMNWVRQAPGKGLEWVSVIYSGGSTYYADSVKGRFTISRDNSKNTLFLQMNSLRAEDSAVYYCARDLGPYGVDVWGQGTTVTVSS VL: DIQLTQSPSFLSASVGDRVTITCWASQGISSYLAWYQQKPGKAPKLLIYAASTLQSGVPSRFSGSGSGTEFTLTISSLQPEDFATYYCQELNSYPLTFGQGTRLEIK | 0.195 | 0.000157 | 808000
4 | IMPI-047 (antibody, V domains shown) VH: EVQLVESGGGLIQPGGSLRLSCAASGFTVSSNYMNWVRQAPGKGLEWVSVIYSGGSTYYADSVKGRFTISRDNSKNTLYLQMNSLRTEDTAVYYCARDLVAYGMDVWGQGTTVTVSS VL: DIQLTQSPSFLSASVGDRVTITCWASQGISSYLAWYQQKPGKAPKVLIYAASTLQSGVPSRFSGSGSGTEFTLTISSLQPEDFATYYCQLLNSNPLTFGGGTKVEIK | 2.38 | 0.000878 | 368000
5 | IMPI-021 (antibody, V domains shown) VH: EVQLVESGGGLIQPGGSLRLSCAASGVTVSSNYMSWVRQAPGKGLEWVSVIYSGGSTFYADSVKGRFTISRDNSKNTLYLQMNSLRAEDTAVYYCARDLSYYGMDVWGQGTTVTVSS VL: DIQLTQSPSFLSASVGDRVTITCWASQGISSYLAWYQQKPGKAPKLLIYAASTLQSGVPSKFSGSGSGTEFTLTISSLQPEDFATYYCQQLNSYPCSFGQGTKLEIK | 8.08 | 0.00443 | 548000
6 | IMPI-005 (antibody, V domains shown) VH: EVQLVESGGGLIQPGGSLRLSCAASGFTVSSNYMNWVRQAPGKGLEWVSVIYSGGSTYYADSVKGRFTISRDNSKNTLFLQMNSLRAEDSAVYYCARDLGPYGVDVWGQGTTVTVSS VL: DIQLTQSPSFLSASVGDRVTITCWASQGISSYLAWYQQKPGKAPKLLIYAASTLQSGVPSRFSGSGSGTEFTLTISSLQPEDFATYYCQELNSYPLTFGQGTRLEIK | 3.09 | 0.0071 | 2.3e+06
7 | IMPI-060 (antibody, V domains shown) VH: EVQLVESGGGLIQPGGSLRLSCAASGVTVSSNYMSWVRQAPGKGLEWVSVIYSGGSTFYADSVKGRFTISRDNSKNTLYLQMNSLRAEDTAVYYCARDLSYYGMDVWGQGTTVTVSS VL: DIQLTQSPSFLSASVGDRVTITCWASQGISSYLAWYQQKPGKAPKLLIYAASTLQSGVPSKFSGSGSGTEFTLTISSLQPEDFATYYCQQLNSYPSSFGQGTKLEIK | 59.2 | 0.0277 | 469000
8 | IMPI-056 (antibody, V domains shown) VH: EVQLVESGGGLIQPGGSLRLSCAASGLTVSSNYMNWVRQAPGKKLEWVSVIYSGGSTFYADSVRGRFTISRDNSKNTLFLQMNSLRAEDSAVYYCARDLGPYGVDVWGQGTTVTVSS VL: DIQLTQSPSFLSASVGDRVTITCWASQGISSYLAWYQQKPGKAPKLLIYAASTLQSGVPSRFSGSGSGTEFTLTISSLQPEDFATYYCQQLNSYPLTFGQGTRLEIK | 0.44 |  | 
